The target in the assay is T1, recombinant CD3 epsilon (Homo sapiens (species ; human …, UniProt P07766).
T1 construct: recombinant CD3 epsilon (Sigma-Aldrich); No catalogue number is printed; source: bought: Sigma-Aldrich
Briefly: ELISA; indirect ELISA; 0.5 µg recombinant CD3 epsilon coated overnight at 4 °C; 500 µg/ml protein of total cell lysate, periplasmic or cytoplasmic fraction with the scFv, 37 °C 1 h; detected with HRP-conjugated anti-E tag, A405; signals of the negative protein and of BSA-coated wells subtracted. To be noted: one partner purified.

T1 sequence (P07766 23-126): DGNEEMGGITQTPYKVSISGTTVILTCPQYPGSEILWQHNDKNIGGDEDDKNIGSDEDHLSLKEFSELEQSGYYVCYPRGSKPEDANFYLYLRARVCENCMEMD

B1: human scFv CD3 clone 18 (scFv, V domains shown)
VH: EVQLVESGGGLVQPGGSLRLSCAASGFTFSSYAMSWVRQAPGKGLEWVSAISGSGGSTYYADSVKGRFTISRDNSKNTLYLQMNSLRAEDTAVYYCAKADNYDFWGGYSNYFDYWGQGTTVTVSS
VL: EIVMTQSPATLSVSPGERATLSCTASQSVRNNLAWYQQKPGQPPRLLIYGASTRATGIPARFSGSRSGTEFTLTISSLQSEDFGVYYCQQYNNWPRTFGQGTKVEIK
notes: selected from a naive human scFv M13 phage library; About 28 kDa on Western blot; source: E. coli HB2151, IPTG-induced; total cell lysate, periplasmic fraction or cytoplasmic fraction
In the case of B1, the binding result is recorded as “binds”.

(Values after article PMC12148185, “Combining CD3/GD2 bispecific T cell engager with human Vγ9Vδ2 T cells facilitates neuroblastoma cell targeting and killing in vitro” (PLOS One, 2025).)
